Tested on: K4 kissing-loop RNA reporter
Test: apparent KD of K4 kissing-loop reporter; higher = weaker reporter binding
Conditions: Eterna round: R107
Description: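 RNA-MaP round R107: designed RNA switches with theophylline, tryptophan, arginine or FMN aptamers are transcribed on-chip within common flanks. They are titrated with a labelled K4 kissing-loop RNA reporter in RNA-MaP buffer (100 mM Tris pH 7.5, 80 mM KCl, 4 mM MgCl2), without ligand or with the indicated ligand. Median apparent KD per design.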

[1] = input ligand: theophylline 20 uM
[2] = input ligand: tryptophan 2.4 mM
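Note: bound reporter read as fluorescence of individual clusters on recovered sequencing chips by microscopy, with normalized cluster intensities fitted with a binding model.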

Sequence	apparent KD of K4 kissing-loop reporter (input ligand: FMN 200 uM) [nM]	apparent KD of K4 kissing-loop reporter (input ligand: arginine 13.2 mM) [nM]	apparent KD of K4 kissing-loop reporter (input ligand: none) [nM]	apparent KD of K4 kissing-loop reporter [1] [nM]	apparent KD of K4 kissing-loop reporter [2] [nM]
CGCACACUUGUUGAUACCAGAAGCCGACCGGAAACAUCAUUGAGUGAUGUUCAAGCUGUUUUCCCUUGGCAGCAAACGAGUGGUC [theeternabot_exclusion_KL_Theo_B_22]	150	120	138	132	138
AAAUAGCUGACGUUGAGUGGGAGCCAGGCACGAGGACCGGUACGGCCGCCACUCGACUAGGUUUUCAGUGAUGUUGAAAAUUUAA [Exclusion Tryptophan A GF 5]	239	249	206	224	194
GCCGUCCGGUCGCAAGACCGGACAGCCGAUACCAGCGCGAAGGCGCGCCCUUGGCAGCGGCACCGAGUGAUGUUCGGUCAGGCGG [#2 Same State - Theophylline A Attempt #2 (HarryS)]	179	148	173	128	166
AGGAUGUAGUGAUGUUAUAUAAGAAGUAAACGAGGACCGGUACGGCCGCCACUCGAAGCGGCUACUAGCGCGCCGCGAGGCGCGC [ExTryptoA.Cb]	370	391	958	361	358
AGUACAGACACGGCCGCCACUCAGAAGAAGACAGUAGUGAUGUUACUGAUGGUGAGAAUAAUAAAGAGGACCGGGUGUUGUGCAA [#04 K4 Tryptophan B Same State]	222	202	224	240	138
UGGCGGACGAUCCGGAGUGAUGUUCCGGAUACCAGCAGAAGAGCCUGCCCUUGGCAGCCGUGCGACGCUGGGAGAGUCCGGCGUC [Requered]	104	88	104	107	99.7
CGCUUAGUGAUGUUUGAUUUGGCGCAUGCAGAGGAUAUAGGGUGCUUUAGAAGGCUGAGGAGUGCGCCGAGUGAUGUUCGGCGCU [Exclusion FMN A GF12]	183	141	212	162	166
UUCUUGAUGGAAACAUCGAGGAUUACUGAUACCAGUAUCGAUAGAUACCCUUGGCAGCAGUAUCGGUGAUCACGAGUGAUGUUCG [Ex Theophylline A K4 11]	669	576	785	757	607
AGGUGAGACUGAAGGAGCGAUCGCGCUAGUGAUGUUGGCGAGCAUGACAAAGUCAUGCACGAUCAGGUAGGUCGCAGUCUUACUC [Omei KL Arginine B SS B v1]	128	103	137	123	141
GUGGUACAGGCGGCCGCCACUAGUGAUGUUAGUGUUAGAAGAUAUAGUAUAUAUCGGCAUUUGUUUAGGACCGGGCCUGGUGGAG [aqzacmullin]	209	166	184	189	182
ACGUAUAUCAGAGGAUAUCGUAUUAAUAUUUUAUCUAUAUAUAUAUGCAGUGAUGUUGCUAUAAUUCGAGAAGGCUGAUUUACGA [JR_ExcFMNB_Sub011]	109	109	84	120	81.4
UUAUAUUUUAUAUUUAGUAGAGCUCUAGCUCGAGGACCGGUACGGCCGCCACUCGAGUGAUGUUCGAGUGGGUGAGCUCUACAUU [AK3 EXC Tryptophan A]	124	95.7	103	101	363
AUAUUUAUUUAGUCACUUUUCAUAUUAUGUCAGGAUAUCGUAUUUUCGAGAAGGGACUCAUGGUAGUGAUGUUACCUAUUUCUCA [#03 K4 FMN A Exclusion]	196	382	387	404	303
CCAGCGGGCACGGCCGCCACUCUCUCGAGUGAUGUUUGCGGAGUCAGGCCGGCUCAGUACGUCACGAGGACCGGGUGCAAUUUAC [theeternabot_exclusion_KL_Trp_B_40]	986	425	829	506	460
CUAUGGAAACAUAGUGAGCGGGAAACCGAUACCAGUAUGGAAACAUACCCUUGGCAGCGGAAUGCUCAAACGGAGUGAUGUUCCG [Theophylline A K4 22]	265	216	270	235	240
GUUACGCAUGGAAGGAGCGCUCUCCGGCUUAUUAACACAGUGAUGUUGUGAUUUUGCCGAAAGCAGGUAGGUCGCCAUGUGUAAC [Ex Arginine B K4 11]	487	363	451	447	451
CACGAUGAAUUCUCUAGGAGUGAUGUUUUUCGAGGACCGGUACGGCCGCCACUCGGACCAGGAGCGUGGUAGCGGCGAAAAGACU [zpmullin]	769	256	545	523	484
UGUGAGCUGUCGACAAAAGUCGACUAAAAUGAGGAUAUGACGAAAGUCAGAAGGCAUCAAUAAUGGAGUGAUGUUCCUGCUCACU [FmnA 9 U30+A56]	373	432	809	790	763
GAAUUGACGAGUGAUGUUCGUCCACAAUACCGAGGACCGGUACGGCCGCCACUCGAGCAAUGUGAAUAGGGUCGCGUUUUGCAGU	294	266	295	352	187
UUUAGGAACUGAGGAUAUUCGAAGAAAUAUAGUGAUGUUAUAUAAGGAGGAGGAGGGAGGGAGGAAGGAGAAGGCAGAAGAGGAG [ExFMNB.E]	368	243	246	330	248
GGAUAGGACAGAGGAUAUGGUAGCUAGGCAAGACAAAAGUCUUGUCUAGCAAUGAGGAGUGAUGUUCCAGAAGGCUGUCCUAUCG [FmnBX 4 - #SwitchBubble #StaticStem]	753	350	442	387	270
